From paper PMC10520629

Experiments:
[1] = biological target: T1, full-length human HACE1 (HECT domain and Ankyrin repeat containing E3 Ubiquitin Protein Ligase 1), wild type, aa 1-909 (human), Q8IYU2; test: SEC; gel filtration of purified full-length HACE1 (Superdex; 20 mM HEPES pH 8.0, 150 mM NaCl, 5% glycerol, 1 mM DTT); details: remark: other sources report otherwise
T1 chain: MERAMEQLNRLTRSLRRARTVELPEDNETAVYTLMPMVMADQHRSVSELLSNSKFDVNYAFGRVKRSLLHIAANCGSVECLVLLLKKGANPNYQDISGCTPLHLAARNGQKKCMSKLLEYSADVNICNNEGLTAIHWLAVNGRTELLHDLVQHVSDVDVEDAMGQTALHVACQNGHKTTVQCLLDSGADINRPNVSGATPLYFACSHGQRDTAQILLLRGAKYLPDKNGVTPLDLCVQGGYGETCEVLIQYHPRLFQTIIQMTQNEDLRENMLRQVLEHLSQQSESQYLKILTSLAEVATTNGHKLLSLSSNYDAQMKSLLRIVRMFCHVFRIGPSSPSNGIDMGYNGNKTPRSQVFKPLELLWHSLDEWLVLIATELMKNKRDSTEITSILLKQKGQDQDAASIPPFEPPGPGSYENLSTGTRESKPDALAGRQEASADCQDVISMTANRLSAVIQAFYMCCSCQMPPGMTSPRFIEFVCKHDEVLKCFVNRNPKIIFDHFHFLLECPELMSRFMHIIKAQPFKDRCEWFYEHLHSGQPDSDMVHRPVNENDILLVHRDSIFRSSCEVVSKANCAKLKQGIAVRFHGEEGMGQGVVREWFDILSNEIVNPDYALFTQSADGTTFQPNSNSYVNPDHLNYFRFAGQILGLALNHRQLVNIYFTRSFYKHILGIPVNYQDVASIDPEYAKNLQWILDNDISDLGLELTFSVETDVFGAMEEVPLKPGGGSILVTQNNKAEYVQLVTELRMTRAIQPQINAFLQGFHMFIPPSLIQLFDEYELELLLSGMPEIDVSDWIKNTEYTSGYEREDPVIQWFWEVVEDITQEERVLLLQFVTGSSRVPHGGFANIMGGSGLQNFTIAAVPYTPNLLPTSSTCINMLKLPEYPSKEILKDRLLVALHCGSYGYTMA

[2] = biological target: T1, full-length human HACE1 (HECT domain …); test: AUC; sedimentation velocity, 40 000 rpm, 20 °C, continuous c(s) distribution model; details: remark: other sources report otherwise

B1: full-length human HACE1 (HECT domain and Ankyrin repeat containing E3 Ubiquitin Protein Ligase 1), wild type, aa 1-909, Q8IYU2 1-909 (enzyme)
chain: MERAMEQLNRLTRSLRRARTVELPEDNETAVYTLMPMVMADQHRSVSELLSNSKFDVNYAFGRVKRSLLHIAANCGSVECLVLLLKKGANPNYQDISGCTPLHLAARNGQKKCMSKLLEYSADVNICNNEGLTAIHWLAVNGRTELLHDLVQHVSDVDVEDAMGQTALHVACQNGHKTTVQCLLDSGADINRPNVSGATPLYFACSHGQRDTAQILLLRGAKYLPDKNGVTPLDLCVQGGYGETCEVLIQYHPRLFQTIIQMTQNEDLRENMLRQVLEHLSQQSESQYLKILTSLAEVATTNGHKLLSLSSNYDAQMKSLLRIVRMFCHVFRIGPSSPSNGIDMGYNGNKTPRSQVFKPLELLWHSLDEWLVLIATELMKNKRDSTEITSILLKQKGQDQDAASIPPFEPPGPGSYENLSTGTRESKPDALAGRQEASADCQDVISMTANRLSAVIQAFYMCCSCQMPPGMTSPRFIEFVCKHDEVLKCFVNRNPKIIFDHFHFLLECPELMSRFMHIIKAQPFKDRCEWFYEHLHSGQPDSDMVHRPVNENDILLVHRDSIFRSSCEVVSKANCAKLKQGIAVRFHGEEGMGQGVVREWFDILSNEIVNPDYALFTQSADGTTFQPNSNSYVNPDHLNYFRFAGQILGLALNHRQLVNIYFTRSFYKHILGIPVNYQDVASIDPEYAKNLQWILDNDISDLGLELTFSVETDVFGAMEEVPLKPGGGSILVTQNNKAEYVQLVTELRMTRAIQPQINAFLQGFHMFIPPSLIQLFDEYELELLLSGMPEIDVSDWIKNTEYTSGYEREDPVIQWFWEVVEDITQEERVLLLQFVTGSSRVPHGGFANIMGGSGLQNFTIAAVPYTPNLLPTSSTCINMLKLPEYPSKEILKDRLLVALHCGSYGYTMA
stoichiometry N [1]: 2 | percent of molecules as dimer or higher oligomers [2]: 79%
